According to patent US20250197490A1 (HBM ALPHA THERAPEUTICS, published 2025):

T1: corticotropin-releasing hormone (CRH) peptide (human and mouse, UniProt P01143 145-185 (rat entry), not fully specified)
T1 peptide: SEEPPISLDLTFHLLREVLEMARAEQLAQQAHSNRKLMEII

T2: biotinylated CRH (human and mouse, UniProt P01143 145-185 (rat entry), not fully specified; biotin; which end is not stated for the result (NT-biotin and CT-biotin forms were used))
T2 construct: also called biotin-CRH; CRH (NT biotin)
T2 peptide: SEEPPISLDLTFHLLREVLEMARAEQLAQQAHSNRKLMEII

B1: PR302052 (antibody, human IgG1, kappa, V domains shown)
VH: EMQLVESGGGLVQPGGSLKLSCAASGFTFSNYWMNWVRQASGKGLEWVAEIRLKSNNYATHYAESVKGRFTISRDDSKSTVYLQMNSLKTEDTAVYYCTVGTLVYWGQGTLVTVSS
VL: EIVLTQSPATLSLSPGERATLSCRASQSVSTSTYNYMHWFQQKPGQAPRLLIKFASNLESGIPARFSGSGSGTDFTLTISSLEPEDTAVYYCQHSWEIPYTFGQGTKLEIKR
B2: PR302041 (antibody, human IgG1, kappa, V domains shown)
VH: EMQLVESGGGLVQPGGSLRLSCAASGFTFSNYWMNWVRQAPGKGLEWVAEIRLKSNNYATHYAESVKGRFTISRDDSKSSVYLQMNSLKTEDTAVYYCTVGTLVYWGQGTLVTVSS
VL: DIQLTQSPSSLSASVGDRVTITCRASQSVSTSTYNYMHWFQQKPGKAPKLLIKFASNLESGVPSRFSGSGSGTDFTLTISSLQPEDTATYYCQHSWEIPYTFGQGTKLEIKR
B3: PR302034 (antibody, human IgG1, kappa, V domains shown)
VH: EVQLVESGGGLVQPGGSLRLSCAASGFTFSNYWMNWVRQAPGKGLEWVGEIRLKSNNYATHYAESVKGRFTISRDDSKNSLYLQMNSLKTEDTAVYYCTVGTLVYWGQGTLVTVSS
VL: DIQLTQSPSSLSASVGDRVTITCRASQSVSTSTYNYMHWFQQKPGKAPKLLIKFASNLESGVPSRFSGSGSGTDFTLTISSLQPEDTATYYCQHSWEIPYTFGQGTKLEIKR
B4: PR302069 (antibody, human IgG1, kappa, V domains shown)
VH: EMQLVESGGGLVKPGGSLRLSCAASGFTFSNYWMNWVRQAPGKGLEWVAEIRLKSNNYATHYAESVKGRFTISRDDSKSTVYLQMNSLKTEDTAVYYCTVGTLVYWGQGTLVTVSS
VL: DIQLTQSPSSLSASVGDRVTITCRASQSVSTSTYNYMHWFQQKPGKAPKLLIKFASNLESGVPSRFSGSGSGTDFTLTISSLQPEDTATYYCQHSWEIPYTFGQGTKLEIKR
B5: PR302055 (antibody, human IgG1, kappa, V domains shown)
VH: EMQLVESGGGLVQPGGSLKLSCAASGFTFSNYWMNWVRQASGKGLEWVAEIRLKSNNYATHYAESVKGRFTISRDDSKSTVYLQMNSLKTEDTAVYYCTVGTLVYWGQGTLVTVSS
VL: DIQLTQSPSSLSASVGDRVTITCRASQSVSTSTYNYMHWFQQKPGKAPKLLIKFASNLESGVPSRFSGSGSGTDFTLTISSLQPEDTATYYCQHSWEIPYTFGQGTKLEIKR
B6: PR302048 (antibody, human IgG1, kappa, V domains shown)
VH: EVQLVESGGGLVQPGGSLKLSCAASGFTFSNYWMNWVRQASGKGLEWVGEIRLKSNNYATHYAESVKGRFTISRDDSKNTAYLQMNSLKTEDTAVYYCTRGTLVYWGQGTLVTVSS
VL: DIQLTQSPSSLSASVGDRVTITCRASQSVSTSTYNYMHWFQQKPGKAPKLLIKFASNLESGVPSRFSGSGSGTDFTLTISSLQPEDTATYYCQHSWEIPYTFGQGTKLEIKR
B7: PR302066 (antibody, human IgG1, kappa, V domains shown)
VH: EMQLVESGGGLVKPGGSLRLSCAASGFTFSNYWMNWVRQAPGKGLEWVAEIRLKSNNYATHYAESVKGRFTISRDDSKSTVYLQMNSLKTEDTAVYYCTVGTLVYWGQGTLVTVSS
VL: EIVLTQSPATLSLSPGERATLSCRASQSVSTSTYNYMHWFQQKPGQAPRLLIKFASNLESGIPARFSGSGSGTDFTLTISSLEPEDTAVYYCQHSWEIPYTFGQGTKLEIKR
B8: PR005657 (antibody, human IgG1, kappa, V domains shown)
VH: EVQLVESGGVLVQPGGSLRLSCAASGFTFSSYWMTWVRQAPGKGLEWVANIKQDASEKYYVDSVKGRFTISRDNAKNSLFLQMNSLRAEDTAVYYCARTLIFDYWGQGTLVTVSS
VL: DIVMTQSPLSLPVTPGEPASISCRSSQSLLHSTGYNSLEWYLQKPGQSPQLLIYLGSNRASGVPDRFSGSGSGTDFTLKISRVEAEDVGIYYCMQTLQTPITFGQGTRLEIKR
B9: PR006147 (antibody, human IgG1, kappa, V domains shown)
VH: EVQLVESGGVLVQPGGSLRLSCAASGFTFSSYWMTWVRQAPGKGLEWVANIKQDASEKYYVDSVKGRFTISRDNAKNSLFLQMNSLRAEDTAVYYCARTLIFDYWGQGTLVTVSS
VL: DIVMTQSPLSLPVTPGEPASISCRSSQSLLHSTGYHSLEWYLQKPGQSPQLLIYLGSNRASGVPDRFSGSGSGTDFTLKISRVEAEDVGIYYCMQTLQTPITFGQGTRLEIKR
B10: PR006148 (antibody, human IgG1, kappa, V domains shown)
VH: EVQLVESGGVLVQPGGSLRLSCAASGFTFSSYWMTWVRQAPGKGLEWVANIKQDASEKYYVDSVKGRFTISRDNAKNSLFLQMNSLRAEDTAVYYCARTLIFDYWGQGTLVTVSS
VL: DIVMTQSPLSLPVTPGEPASISCRSSQSLLHSTGYNPLEWYLQKPGQSPQLLIYLGSNRASGVPDRFSGSGSGTDFTLKISRVEAEDVGIYYCMQTLQTPITFGQGTRLEIKR
B11: PR006144 (antibody, human IgG1, kappa, V domains shown)
VH: EVQLVESGGVLVQPGGSLRLSCAASGFTFSSYWMTWVRQAPGKGLEWVANIKQEGSEKYYVDSVKGRFTISRDNAKNSLFLQMNSLRAEDTAVYYCARTLIFDYWGQGTLVTVSS
VL: DIVMTQSPLSLPVTPGEPASISCRSSQSLLHSTGYNPLEWYLQKPGQSPQLLIYLGSNRASGVPDRFSGSGSGTDFTLKISRVEAEDVGIYYCMQTLQTPITFGQGTRLEIKR
B12: PR005658 (antibody, human IgG1, kappa, V domains shown)
VH: EVQLVESGGVLVQPGGSLRLSCAASGFTFSSYWMTWVRQAPGKGLEWVANIKQDGSEKYYVDSVKGRFTISRDNAKNSLFLQMNSLRAEDTAVYYCARTLIFDYWGQGTLVTVSS
VL: DIVMTQSPLSLPVTPGEPASISCRSSQSLLHSTGYQSLEWYLQKPGQSPQLLIYLGSNRASGVPDRFSGSGSGTDFTLKISRVEAEDVGIYYCMQTLQTPITFGQGTRLEIKR
B13: PR005662 (antibody, human IgG1, kappa, V domains shown)
VH: EVQLVESGGVLVQPGGSLRLSCAASGFTFSSYWMTWVRQAPGKGLEWVANIKQDASEKYYVDSVKGRFTISRDNAKNSLFLQMNSLRAEDTAVYYCARTLIFDYWGQGTLVTVSS
VL: DIVMTQSPLSLPVTPGEPASISCRSSQSLLHSTGYQSLEWYLQKPGQSPQLLIYLGSNRASGVPDRFSGSGSGTDFTLKISRVEAEDVGIYYCMQTLQTPITFGQGTRLEIKR
B14: PR006146 (antibody, human IgG1, kappa, V domains shown)
VH: EVQLVESGGVLVQPGGSLRLSCAASGFTFSSYWMTWVRQAPGKGLEWVANIKQDASEKYYVDSVKGRFTISRDNAKNSLFLQMNSLRAEDTAVYYCARTLIFDYWGQGTLVTVSS
VL: DIVMTQSPLSLPVTPGEPASISCRSSQSLLHSTGYDSLEWYLQKPGQSPQLLIYLGSNRASGVPDRFSGSGSGTDFTLKISRVEAEDVGIYYCMQTLQTPITFGQGTRLEIKR
B15: PR006142 (antibody, human IgG1, kappa, V domains shown)
VH: EVQLVESGGVLVQPGGSLRLSCAASGFTFSSYWMTWVRQAPGKGLEWVANIKQEGSEKYYVDSVKGRFTISRDNAKNSLFLQMNSLRAEDTAVYYCARTLIFDYWGQGTLVTVSS
VL: DIVMTQSPLSLPVTPGEPASISCRSSQSLLHSTGYDSLEWYLQKPGQSPQLLIYLGSNRASGVPDRFSGSGSGTDFTLKISRVEAEDVGIYYCMQTLQTPITFGQGTRLEIKR

Columns and labels:
[1] = target: T1, corticotropin-releasing hormone (CRH) …; assay: cell-based or functional assay
biotinylated CRH = target: T2, biotinylated CRH; assay: ELISA, CRH (NT biotin)
Description: Streptavidin (Thermo, Cat: 21125) was diluted in PBS to a concentration of 2 μg/ml. 100 μl of diluted streptavidin was added per well to ELISA microplates, and the plates were incubated overnight at 4° C. […] Subsequently, plates were washed and incubated with HRP-conjugated goat anti-human IgG (H+L) antibody (Jackson, Cat: 109-035-088) at 37° C. for 1 hour. 100 μL of 3,3′,5,5′-tetramethylbenzidine (TMB) substrate (Biopanda, Cat: TMB-S-003) was added, and the plates were incubated at room temperature for 15 minutes. 100 μL of ELISA stopping solution (Solarbio, Cat #: C1058) was added to terminate the reaction, and the optical density at 450 nm (OD450 nm) was determined by an ELISA plate reader (Molecular Devices, Spectra max 384 plus).
These potential PTMs were mutated individually either in HCDR2 alone, in LCDR1 alone, or in various combinations of mutations, as detailed in Table 3. […] Most ΔPTM variants retained functional activities.

Binder | unlabelled nM value (Table 5 matrix; likely hCRHR1-Luc IC50 as in Tables 6-8) [1] [nM] | binding result (biotinylated CRH) | also measured
B1 | 2.05 |  | 
B2 | 2.54 |  | 
B3 | 6.87 |  | 
B4 | 1.54 |  | 
B5 | 1.35 |  | 
B6 | 6.66 |  | 
B7 | 2.49 |  | 
B8 |  |  | EC50 (read off the curve) (biotinylated CRH): ~0.03 nM
B9 |  | binds | 
B10 |  | binds | 
B11 |  | binds | 
B12 |  |  | EC50 (read off the curve) (biotinylated CRH): ~0.03 nM
B13 |  |  | EC50 (read off the curve) (biotinylated CRH): ~0.03 nM
B14 |  | binds | 
B15 |  | binds | 
